# Assay results published in patent US20180222987A1 (Sanofi, published 2018).
# Assays:
# [1] = target: T1, human CD123 (IL3RA) Strep-II tagged Fc-fusion protein (human); test: SPR Proteon XPR36, rat IgG captured, CD123-Fc analyte
# T1 construct: also called human CD123-Fc
# Method: Screening of anti-CD123 rat IgGs for binding affinities to human CD123 and cross-reactivities to cyno CD123 was performed with hybridoma supernatants using a Proteon XPR36 (Biorad) in a one-shot kinetics approach. A capture assay was established using a goat anti-rat IgG (112-005-071, Jackson Immuno Research). The capture antibody was coated on GLC chips (176-5011, Biorad) to approx. 8000 RU in the vertical direction using the amine coupling kit (176-2410, Biorad). […] Binding kinetics with human and cyno CD123-Fc fusion protein was measured at 100 μl/min in the horizontal direction with 120 sec. and 600 sec. for association and dissociation, respectively. The CD123-Fc proteins were used in twofold dilutions from 6 nM to 100 nM. PBSET buffer (176-2730, Biorad) was used as assay buffer. Regeneration was achieved by injection of 10 mM Glycine buffer pH 1.5 for 18 sec at 30 μl/min. Data processing and analysis was performed using ProteonManager software v3.0. Fitting of the sensorgrams was done with a 1:1 Langmuir model.
# [2] = target: T2, human CD3ε/δ-Fc fusion heterodimer (hCD3ε/δ-hFc) (human, UniProt P04234 22-105); test: SPR single point, hybridoma supernatant
# T2 construct: also called CD3ed-Fc; human CD3ε/δ complex; not shown: hinge-CH2-CH3 of human IgG with tag
# T2 sequence (chain, as listed by the source mutant, chain 1 of 2): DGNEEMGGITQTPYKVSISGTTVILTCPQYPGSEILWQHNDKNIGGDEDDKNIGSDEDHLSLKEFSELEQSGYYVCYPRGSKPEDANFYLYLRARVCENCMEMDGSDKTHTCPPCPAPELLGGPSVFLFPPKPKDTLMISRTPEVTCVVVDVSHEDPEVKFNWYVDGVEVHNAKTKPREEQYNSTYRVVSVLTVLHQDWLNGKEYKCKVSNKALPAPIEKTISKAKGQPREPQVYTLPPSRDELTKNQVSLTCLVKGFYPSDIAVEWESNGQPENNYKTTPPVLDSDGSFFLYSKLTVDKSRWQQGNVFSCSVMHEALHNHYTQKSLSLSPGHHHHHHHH
# T2 sequence (P04234 22-105, stated change not applied, chain 2 of 2): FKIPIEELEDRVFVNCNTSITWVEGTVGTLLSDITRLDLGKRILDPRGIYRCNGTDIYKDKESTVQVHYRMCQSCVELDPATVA
# Method: Rats with positive sera were scarified and B cells were fused with mouse myeloma cells. The resulting hybridomas were screened on HEK293 cells transfected with human or cynomolgus CD3ε and CD3δ expression plasmids, on Jurkat E6.1 (CD3+) and Jurkat T3.5 (CD3-) by flow cytometry. Supernatant of Hybridoma clones was used to assess by surface plasmon resonance single point kinetic against human and Macaca fascicularis CD3ε/δ complex by fixing the analyte at 25 nM (data presented in table 3).
# T1 sequence (chain, as listed by the source limits assumed): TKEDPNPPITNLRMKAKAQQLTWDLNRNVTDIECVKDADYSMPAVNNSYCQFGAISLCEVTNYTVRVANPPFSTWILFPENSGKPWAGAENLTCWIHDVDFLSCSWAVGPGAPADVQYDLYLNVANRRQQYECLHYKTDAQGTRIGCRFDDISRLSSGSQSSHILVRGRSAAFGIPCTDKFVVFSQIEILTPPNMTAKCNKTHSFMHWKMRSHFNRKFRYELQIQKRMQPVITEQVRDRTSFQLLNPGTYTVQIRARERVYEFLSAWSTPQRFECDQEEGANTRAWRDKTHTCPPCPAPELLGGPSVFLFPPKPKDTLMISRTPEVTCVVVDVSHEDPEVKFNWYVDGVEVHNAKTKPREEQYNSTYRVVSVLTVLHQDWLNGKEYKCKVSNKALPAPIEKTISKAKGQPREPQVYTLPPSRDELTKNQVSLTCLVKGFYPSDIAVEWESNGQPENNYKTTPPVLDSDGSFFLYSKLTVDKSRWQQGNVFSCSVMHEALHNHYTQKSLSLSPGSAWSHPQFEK
koff [1] [s⁻¹],RU at 25 nM [2] [RU],Binder
~5e-05,–,"3B10-E6 anti-CD123 antibody (antibody, V domains shown, rat IgG, hybridoma supernatant; also called BFX - 3B10) VH: QVQLQQSGPELRRPGSSVRLSCKASGYRIKDFLIHWIKNRPEHGLEWIGWIDPEDGETKYAQKFQTKATLTADTSSNTAYMQLSSLTSEDTATYFCARWGDVYYGLMRGHVMDAWGQGTSVTVSS VL: DVLMTQTPVSLPVSLGGQVSISCRSSQSLVHSDGDTYLHWYLQKPGQSPQLLIYRVSNRFSGVPDRFSGSGSGTDFTLKISRVEPEDLGLYYCLQTTHFPPWTFGGGTKLEMK"
–,7,"11H3-E5 anti-CD3 antibody (antibody, V domains shown, rat mAb, hybridoma supernatant) VH: EVQLVETGGSLVQPGKSLKLTCATSGFTFSNAWMHWVRQSPEKQLEWVAQIKAKSNNYATYYAESVKGRFTISRDDSKSSVYLQMNSLKEEDTAIYYCRGTYYAYKPFDYWGQGVMVTVSS VL: DVVMTQTPVSLSVSLGGQVSISCRSSQSLVHDNGNTYLSWSLQKPGQSPQVLIYKVSNRFSGTSDRFTGSGSGTDFTLKISRVEPDDLGVYYCGQGTQYPFTFGSGTKLEIK"
